Results taken from paper PMC9499506, “TNF-α and IL-1β Modulate Blood-Brain Barrier Permeability and Decrease Amyloid-β Peptide Efflux in a Human Blood-Brain Barrier Model” (International Journal of Molecular Sciences, 2022).

Tested on: BLECs
Settings: MTT assay; 10 ng·mL^−1, 24 h, abluminal compartment
Protocol: An MTT assay was performed as a preliminary test to determine their effect on BLEC viability and to validate the chosen concentrations. Dimethyl sulfoxide (DMSO) at 10% (v/v) was used as a positive control of cell toxicity.
After 6 days of coculture, TNF-α or IL-1β were added to the basolateral compartment (brain side) at 10 ng·mL^−1 for 24 h, at 37 °C and 5% CO2, to mimic CNS inflammation condition. Each condition was studied in triplicate.
The standard MTT [3-(4,5-dimethylthiazol-2-yl)-2,5-diphenyltetrazolium bromide] assay (AR1156, Boster Biological Technology, Pleasanton, CA, USA) was performed to determine BLEC viability. Briefly, after coculture treatments, culture medium was removed and replaced with worm Ringer-Hepes (RH; 150 mM NaCl, 5.2 mM KCl, 2.2 mM CaCl2, 0.2 mM MgCl2–6H2O, 6 mM NaHCO3, 5 mM HEPES, 2.8 mM glucose; pH: 7.4) in basolateral compartment and with MTT solution (0.5 mg·mL^−1) in RH at in the opposite compartment for 3 h at 37 °C and 5% CO2. […] Aliquot was sampled in 96-well plate and the optical density (OD) was measured with a microplate reader (Synergy H1, BioTek. Colmar, France) at the wavelength of 570 and 630 nm. The percentage of relative cell viability compared to the control condition was subsequently determined using the following formula: % relative cell viability = ((OD570 − OD630) condition)/((OD570 – OD630)control) × 100.

For interleukin-1β [IL-1β], the “effect on BLEC viability” value was “did not affect BLEC viability”.
